Residue numbers refer to the chain shown, from its start. Where no end group is shown, it is not given here.
T1: TDP-210 peptide (human)
T1 construct: 8-mer of human TDP-43; same ELISA method as for the biotinylated 15-mers
T1 peptide: FFSQYGDV

T2: TDP-211 peptide (human)
T2 construct: 8-mer of human TDP-43; same ELISA method as for the biotinylated 15-mers
T2 peptide: FSQYGDVM

T3: TDP-212 peptide (human)
T3 construct: 8-mer of human TDP-43; same ELISA method as for the biotinylated 15-mers
T3 peptide: SQYGDVMD

T4: TDP-213 peptide (human)
T4 construct: 8-mer of human TDP-43; same ELISA method as for the biotinylated 15-mers
T4 peptide: QYGDVMDV

T5: TDP-214 peptide (human)
T5 construct: 8-mer of human TDP-43; same ELISA method as for the biotinylated 15-mers
T5 peptide: YGDVMDVF

T6: TDP-216 peptide (human)
T6 construct: 8-mer of human TDP-43; same ELISA method as for the biotinylated 15-mers
T6 peptide: DVMDVFIP

T7: TDP-217 peptide (human)
T7 construct: 8-mer of human TDP-43; same ELISA method as for the biotinylated 15-mers
T7 peptide: VMDVFIPK

T8: TDP-218 peptide (human)
T8 construct: 8-mer of human TDP-43; same ELISA method as for the biotinylated 15-mers
T8 peptide: MDVFIPKP

T9: TDP-219 peptide (human)
T9 construct: 8-mer of human TDP-43; same ELISA method as for the biotinylated 15-mers
T9 peptide: DVFIPKPF

T10: TDP-220 peptide (human)
T10 construct: 8-mer of human TDP-43; same ELISA method as for the biotinylated 15-mers
T10 peptide: VFIPKPFR

T11: TDP-221 peptide (human)
T11 construct: 8-mer of human TDP-43; same ELISA method as for the biotinylated 15-mers
T11 peptide: FIPKPFRA

T12: TDP-222 peptide (human)
T12 construct: 8-mer of human TDP-43; same ELISA method as for the biotinylated 15-mers
T12 peptide: IPKPFRAF

T13: TDP-223 peptide (human)
T13 construct: 8-mer of human TDP-43; same ELISA method as for the biotinylated 15-mers
T13 peptide: PKPFRAFA

T14: TDP-224 peptide (human)
T14 construct: 8-mer of human TDP-43; same ELISA method as for the biotinylated 15-mers
T14 peptide: KPFRAFAF

T15: TDP-215 peptide (human)
T15 construct: same ELISA method as for the biotinylated 15-mers
T15 peptide: GDVMDVFI

T16: TP-24 peptide (human, also: biotinylated, site not given here)
T16 construct: 15-mer of human TDP-43 from the library spanning aa 199-285; captured on streptavidin plates
T16 peptide: REFFSQYGDVMDVFI

T17: TP-25 peptide (human, also: biotinylated, site not given here)
T17 construct: 15-mer of human TDP-43 from the library spanning aa 199-285; captured on streptavidin plates
T17 peptide: VMDVFIPKPFRAFAF

B1: ACI-7062-410H3-Ab1 (antibody, IgG1, V domains shown)
VH: DVQLVESGGGLVQPGGSRRLSCAASGFTFSSFGMHWVRQAPEKGLEWVAYIRSGSDIIYYADSVKGRFTISRDNPENTLFLQMTSLRSEDTAMYYCARSGTTVPFDYWGQGTSLTVSS
VL: DIVMTQSPSSLAMSVGQKVTMSCKSSQSLLNSGNQKNYLAWYQQKPGQSPELLLYFASTRASGVPDRFIGSGSGTDFTLTISSVQAEDLADYFCQQHYSIPLTFGAGTKLELKR
notes: also called 410H3B9; clone 7
B2: ACI-7062-406E3-Ab1 (antibody, IgG2a, V domains shown)
VH: QVTLKESGPAILQPSQTLSLTCSFSGFSLTTYGIGVGWIRQPSGKGLEWLAHIWWNDNKYYNTALKSRLTVSKDTSNNQVFLKIASVDTADTATYYCARVYGNLYYFAYWGQGTTLTVSS
VL: DVLMTQTPLSLPVSLGDRASISCRSSQSIVHRSGNTYLEWYLQKPGQSPKLLIYKVSNRFSGVPDRFSGSGSGTDFTLKISRVEAEDLGVYYCFQGSHVPTFGAGTKLELKR
notes: also called 406E3D5; clone 5
B3: ACI-7062-416A11-Ab1 (antibody, IgG2a, V domains shown)
VH: B2 VH with A10G, P14S, T30S, V71I, T92A, A108G
VL: B2 VL with R32S, H98R
notes: also called 416A11B3; clone 18
B4: ACI-7062-406E3-Ab2 (antibody, IgG2a, V domains shown)
VH: B2 VH
VL: B2 VL
notes: also called 406E3G10; clone 6
B5: ACI-7062-412A7-Ab1 (antibody, IgG2b, V domains shown)
VH: B1 VH
VL: B1 VL
notes: also called 412A7B7; clone 9

Target: T1, TDP-210 peptide
Experiment: indirect ELISA, 8-mer peptide library
Protocol: (§1) Serum-free supernatants were harvested from stable hybridomas. The supernatants containing antibodies of interest were then screened by an indirect ELISA assay to determine epitopes. Epitopes were mapped using a library of TDP-43 15-mer peptides. Briefly, 96-well streptavidin-coated 96-well ELISA plates were incubated with 5 μg/mL of biotinylated 15-mer peptides spanning the amino acids (aa) 199-285 of human TDP-43 with 9 aa offset and 6 aa overlap. Plates were washed thoroughly with 0.05% Tween-20/PBS and then blocked with 1% bovine serum albumin (BSA) in 0.05% Tween-20/PBS for 1 hour at 37° C. The antibody contained in the hybridoma supernatant was then added at the indicated dilutions, and incubated for 2 hours at 37° C. after which the plates were washed as described previously. An AP-conjugated anti-mouse IgG secondary antibody (Jackson ImmunoResearch Laboratories, United Kingdom) was added at 1/1000 dilution in 0.05% Tween-20/PBS for 1 hour at 37° C. After the final wash, plates were incubated with pNPP (Sigma-Aldrich, Switzerland) an AP substrate solution, and read at 405 nm using an ELISA plate reader (Tecan).
(§2) Furthermore, antibodies were tested using an indirect ELISA on a peptide library of 8-mer peptides with 7 aa overlap covering the sequence of human TDP-43 from aa 210 to aa 231, using the same ELISA method as describe previously in this section.

| binding result | Binder |
| --- | --- |
| no binding | B1 |
| no binding | B2 |
| no binding | B3 |
| no binding | B4 |
| no binding | B5 |

Target: T2, TDP-211 peptide
Experiment: indirect ELISA, 8-mer peptide library
Protocol: as §1, §2

| binding result | Binder |
| --- | --- |
| no binding | B1 |
| no binding | B2 |
| no binding | B3 |
| no binding | B4 |
| no binding | B5 |

Target: T3, TDP-212 peptide
Experiment: indirect ELISA, 8-mer peptide library
Protocol: as §1, §2

| binding result | Binder |
| --- | --- |
| no binding | B1 |
| no binding | B2 |
| no binding | B3 |
| no binding | B4 |
| no binding | B5 |

Target: T4, TDP-213 peptide
Experiment: indirect ELISA, 8-mer peptide library
Protocol: as §1, §2

| binding result | Binder |
| --- | --- |
| no binding | B1 |
| no binding | B2 |
| no binding | B3 |
| no binding | B4 |
| no binding | B5 |

Target: T5, TDP-214 peptide
Experiment: indirect ELISA, 8-mer peptide library
Protocol: as §1, §2

| binding result | Binder |
| --- | --- |
| no binding | B1 |
| no binding | B2 |
| no binding | B3 |
| no binding | B4 |
| no binding | B5 |

Target: T6, TDP-216 peptide
Experiment: indirect ELISA, 8-mer peptide library
Protocol: as §1, §2

| binding result | Binder |
| --- | --- |
| no binding | B2 |
| no binding | B3 |
| no binding | B4 |

Target: T7, TDP-217 peptide
Experiment: indirect ELISA, 8-mer peptide library
Protocol: as §1, §2

| binding result | Binder |
| --- | --- |
| no binding | B1 |
| no binding | B2 |
| no binding | B3 |
| no binding | B4 |
| no binding | B5 |

Target: T8, TDP-218 peptide
Experiment: indirect ELISA, 8-mer peptide library
Protocol: as §1, §2

| binding result | Binder |
| --- | --- |
| no binding | B1 |
| no binding | B2 |
| no binding | B3 |
| no binding | B4 |
| no binding | B5 |

Target: T9, TDP-219 peptide
Experiment: indirect ELISA, 8-mer peptide library
Protocol: as §1, §2

| binding result | Binder |
| --- | --- |
| no binding | B1 |
| no binding | B2 |
| no binding | B3 |
| no binding | B4 |
| no binding | B5 |

Target: T10, TDP-220 peptide
Experiment: indirect ELISA, 8-mer peptide library
Protocol: as §1, §2

| binding result | Binder |
| --- | --- |
| no binding | B1 |
| no binding | B2 |
| no binding | B3 |
| no binding | B4 |
| no binding | B5 |

Target: T11, TDP-221 peptide
Experiment: indirect ELISA, 8-mer peptide library
Protocol: as §1, §2

| binding result | Binder |
| --- | --- |
| no binding | B1 |
| no binding | B2 |
| no binding | B3 |
| no binding | B4 |
| no binding | B5 |

Target: T12, TDP-222 peptide
Experiment: indirect ELISA, 8-mer peptide library
Protocol: as §1, §2

| binding result | Binder |
| --- | --- |
| no binding | B1 |
| no binding | B2 |
| no binding | B3 |
| no binding | B4 |
| no binding | B5 |

Target: T13, TDP-223 peptide
Experiment: indirect ELISA, 8-mer peptide library
Protocol: as §1, §2

| binding result | Binder |
| --- | --- |
| no binding | B1 |
| no binding | B2 |
| no binding | B3 |
| no binding | B4 |
| no binding | B5 |

Target: T14, TDP-224 peptide
Experiment: indirect ELISA, 8-mer peptide library
Protocol: as §1, §2

| binding result | Binder |
| --- | --- |
| no binding | B1 |
| no binding | B2 |
| no binding | B3 |
| no binding | B4 |
| no binding | B5 |

Target: T15, TDP-215 peptide
Experiment: indirect ELISA, 8-mer peptide library, OD 405 nm
Protocol: as §1, §2

| binding result | Binder |
| --- | --- |
| binds | B1 |
| binds | B2 |
| binds | B3 |
| binds | B4 |
| binds | B5 |

Target: T16, TP-24 peptide
Experiment: indirect ELISA, biotinylated 15-mer peptide on streptavidin plate, hybridoma supernatant
Protocol: as §1

| OD | Binder |
| --- | --- |
| 3.8 O.D. (405 nm) | B1 |
| 3 O.D. (405 nm) | B2 |
| 2.9 O.D. (405 nm) | B3 |
| 3.4 O.D. (405 nm) | B4 |
| 4 O.D. (405 nm) | B5 |

Target: T17, TP-25 peptide
Experiment: as above
Protocol: as §1

| OD | Binder |
| --- | --- |
| 0.8 O.D. (405 nm) | B1 |
| 1 O.D. (405 nm) | B2 |
| 0.9 O.D. (405 nm) | B3 |
| 0.9 O.D. (405 nm) | B4 |
| 1.4 O.D. (405 nm) | B5 |

Reference: patent publication US20220025023A1 (AC IMMUNE, published 2022)
